The values below come from patent US20190241674A1 (MAB DISCOVERY, published 2019).

The term EC50 denotes the concentration giving half of the maximal effect.

In assay [1] the target is T1, Recombinant Human ErbB2/HER2 Fc Chimera; R&D Systems; Cat. No. 1129-ER (human, UniProt P04626 23-652).
T1 construct: Bought reagent; also called human Her2; HER2-HIS-tag; not shown: not described
The experiment in a line: HER2 biochemical ELISA, coated HER2 Fc chimera (Example 3). Background: ELISA stands for enzyme-linked immunosorbent assay.

For a further assay, the target named is FcγRIIIa receptor, V158 (human, UniProt P08637 17-254). The assay is described as follows: cell-based or functional assay.
The target of a further assay is T2, HER2 on SK-BR-3 cells (human, UniProt P04626 23-1255).
T2 construct: whole, on cells
The experiment in a line: cell binding to SK-BR-3, high content imaging (Example 4).

FcγRIIIa receptor, V158, sequence (P08637 17-254 F176V): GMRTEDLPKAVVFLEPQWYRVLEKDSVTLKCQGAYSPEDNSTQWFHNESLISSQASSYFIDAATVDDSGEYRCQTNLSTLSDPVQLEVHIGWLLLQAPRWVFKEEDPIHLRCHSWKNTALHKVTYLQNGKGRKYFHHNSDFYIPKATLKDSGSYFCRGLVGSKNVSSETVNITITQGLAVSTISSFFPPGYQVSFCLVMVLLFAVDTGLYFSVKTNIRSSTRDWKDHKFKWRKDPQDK

B1: MABD B100 (antibody)
heavy: not shown
light: DIVMTQTPASVSEPVGGTVTIKCQASQGISTALAWYQQKPGQRPKLLIYSASTLASGVSSRFKGSGSGTQFTLTISDLECADAATYYCQCTAAGSVSVGAFGGGTEVVVNRTVAAPSVFIFPPSDEQLKSGTASVVCLLNNFYPREAKVQWKVDNALQSGNSQESVTEQDSKDSTYSLSSTLTLSKADYEKHKVYACEVTHQGLSSPVTKSFNRGEC
Take B1: the EC50 in assay [1] was found to be 5.2 ng/mL; with HER2 on SK-BR-3 cells, 0.078 µg/mL. For the same molecule, the “EC50 of FcR signaling” value with FcγRIIIa receptor, V158 was determined as 52 ng/mL. Moreover, the “stimulation of FcR signaling” value in the assay with FcγRIIIa receptor, V158 came out at 132 fold.
